Where two headings read alike, the source gives them in different places. Non-standard residues stand in square brackets, D forms with d. *: point of attachment. Succinimide(1-Et,3-yl) = CCN1C(=O)CC(*)C1=O
Tests used:
rat NMUR2 [1] = biological target: T1, rat NMUR2 (rat, UniProt Q9ESQ4 1-395); assay: cell-based or functional assay
human NMUR1 [2] = biological target: T2, human NMUR1 (human, UniProt Q9HB89 1-426); assay: cell-based or functional assay
T2 sequence (looked up): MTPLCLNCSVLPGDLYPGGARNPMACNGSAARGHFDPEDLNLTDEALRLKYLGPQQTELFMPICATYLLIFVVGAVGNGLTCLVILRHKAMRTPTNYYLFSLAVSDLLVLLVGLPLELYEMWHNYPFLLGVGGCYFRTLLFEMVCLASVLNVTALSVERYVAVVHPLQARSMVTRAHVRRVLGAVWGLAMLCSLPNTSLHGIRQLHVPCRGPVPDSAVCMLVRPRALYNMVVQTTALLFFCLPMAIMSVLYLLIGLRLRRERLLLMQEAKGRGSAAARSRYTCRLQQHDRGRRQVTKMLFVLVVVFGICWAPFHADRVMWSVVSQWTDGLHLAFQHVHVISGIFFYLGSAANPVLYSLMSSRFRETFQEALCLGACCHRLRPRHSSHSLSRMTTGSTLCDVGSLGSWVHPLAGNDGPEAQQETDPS

rat NMUR1-ATG [3] = biological target: T3, rat NMUR1-ATG (rat, UniProt Q9JJI5 1-425); assay: cell-based or functional assay
T3 sequence (looked up): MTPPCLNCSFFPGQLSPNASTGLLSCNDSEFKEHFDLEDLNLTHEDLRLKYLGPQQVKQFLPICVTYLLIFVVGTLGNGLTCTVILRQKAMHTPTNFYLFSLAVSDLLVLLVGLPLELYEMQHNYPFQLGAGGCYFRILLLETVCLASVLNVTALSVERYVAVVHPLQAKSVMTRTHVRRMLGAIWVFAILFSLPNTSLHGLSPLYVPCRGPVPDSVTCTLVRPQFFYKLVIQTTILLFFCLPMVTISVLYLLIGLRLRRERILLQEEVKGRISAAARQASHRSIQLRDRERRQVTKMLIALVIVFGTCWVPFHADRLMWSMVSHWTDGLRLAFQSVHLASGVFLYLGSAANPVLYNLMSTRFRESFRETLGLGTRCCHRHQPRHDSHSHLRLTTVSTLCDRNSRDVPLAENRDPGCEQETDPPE

human NMUR2 [4] = biological target: T4, human NMUR2 (human, UniProt Q9GZQ4 1-415); assay: cell-based or functional assay
T4 sequence (Q9GZQ4 whole entry): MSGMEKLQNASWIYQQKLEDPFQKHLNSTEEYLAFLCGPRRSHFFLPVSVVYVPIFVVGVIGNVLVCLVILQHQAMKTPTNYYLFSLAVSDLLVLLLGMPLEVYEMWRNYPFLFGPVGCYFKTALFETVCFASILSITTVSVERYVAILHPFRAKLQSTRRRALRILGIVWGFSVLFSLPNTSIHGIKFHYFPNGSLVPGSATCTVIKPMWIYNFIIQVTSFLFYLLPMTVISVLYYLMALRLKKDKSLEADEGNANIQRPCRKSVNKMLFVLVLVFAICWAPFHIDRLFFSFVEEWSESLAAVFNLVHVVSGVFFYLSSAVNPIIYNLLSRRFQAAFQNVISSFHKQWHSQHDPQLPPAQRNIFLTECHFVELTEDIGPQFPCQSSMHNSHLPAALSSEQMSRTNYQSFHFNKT

mouse NMUR1-CTG [5] = biological target: T5, mouse NMUR1-CTG (mouse, UniProt O55040 1-428); assay: cell-based or functional assay
T5 sequence (looked up): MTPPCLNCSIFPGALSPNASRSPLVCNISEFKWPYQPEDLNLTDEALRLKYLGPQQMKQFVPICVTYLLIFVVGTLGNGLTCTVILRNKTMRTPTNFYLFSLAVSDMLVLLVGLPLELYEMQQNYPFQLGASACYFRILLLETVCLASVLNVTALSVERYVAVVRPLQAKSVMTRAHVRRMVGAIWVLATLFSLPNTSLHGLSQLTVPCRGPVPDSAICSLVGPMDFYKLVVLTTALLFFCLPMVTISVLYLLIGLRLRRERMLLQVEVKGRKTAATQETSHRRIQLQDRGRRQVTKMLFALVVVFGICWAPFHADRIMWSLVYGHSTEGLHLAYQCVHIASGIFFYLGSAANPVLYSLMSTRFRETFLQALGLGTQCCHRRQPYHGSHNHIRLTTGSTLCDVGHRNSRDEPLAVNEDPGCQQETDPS

mouse NMUR2 [6] = biological target: T6, mouse NMUR2 (mouse, UniProt Q8BZ39 1-395); assay: cell-based or functional assay
T6 sequence (Q8BZ39 whole entry): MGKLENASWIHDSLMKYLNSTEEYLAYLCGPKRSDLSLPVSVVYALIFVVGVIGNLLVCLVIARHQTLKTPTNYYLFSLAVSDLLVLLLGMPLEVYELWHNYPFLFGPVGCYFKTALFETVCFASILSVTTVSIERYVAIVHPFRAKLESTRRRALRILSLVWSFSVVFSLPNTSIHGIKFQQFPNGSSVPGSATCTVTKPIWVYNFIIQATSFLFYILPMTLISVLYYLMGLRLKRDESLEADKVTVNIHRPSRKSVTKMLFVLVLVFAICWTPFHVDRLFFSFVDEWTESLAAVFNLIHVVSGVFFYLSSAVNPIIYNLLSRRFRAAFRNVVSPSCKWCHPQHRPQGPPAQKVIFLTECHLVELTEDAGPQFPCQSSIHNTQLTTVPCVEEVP

rat NMUR1-TTG [7] = biological target: T7, rat NMUR1-TTG (rat, UniProt Q9JJI5 1-425); assay: cell-based or functional assay
T7 sequence (looked up): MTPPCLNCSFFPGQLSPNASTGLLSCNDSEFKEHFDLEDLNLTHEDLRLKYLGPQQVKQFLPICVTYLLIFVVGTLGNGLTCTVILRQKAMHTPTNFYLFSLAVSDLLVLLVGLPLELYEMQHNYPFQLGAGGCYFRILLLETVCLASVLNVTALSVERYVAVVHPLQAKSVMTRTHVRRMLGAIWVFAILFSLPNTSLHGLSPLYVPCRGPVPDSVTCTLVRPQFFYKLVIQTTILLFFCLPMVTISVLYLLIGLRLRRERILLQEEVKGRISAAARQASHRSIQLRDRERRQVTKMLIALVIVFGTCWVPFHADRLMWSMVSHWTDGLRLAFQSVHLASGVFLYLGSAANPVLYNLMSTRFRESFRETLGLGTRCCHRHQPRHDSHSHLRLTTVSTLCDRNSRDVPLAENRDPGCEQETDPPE

mouse NMUR1-ATG [8] = biological target: T8, mouse NMUR1-ATG (mouse, UniProt O55040 1-428); assay: cell-based or functional assay
T8 sequence (looked up): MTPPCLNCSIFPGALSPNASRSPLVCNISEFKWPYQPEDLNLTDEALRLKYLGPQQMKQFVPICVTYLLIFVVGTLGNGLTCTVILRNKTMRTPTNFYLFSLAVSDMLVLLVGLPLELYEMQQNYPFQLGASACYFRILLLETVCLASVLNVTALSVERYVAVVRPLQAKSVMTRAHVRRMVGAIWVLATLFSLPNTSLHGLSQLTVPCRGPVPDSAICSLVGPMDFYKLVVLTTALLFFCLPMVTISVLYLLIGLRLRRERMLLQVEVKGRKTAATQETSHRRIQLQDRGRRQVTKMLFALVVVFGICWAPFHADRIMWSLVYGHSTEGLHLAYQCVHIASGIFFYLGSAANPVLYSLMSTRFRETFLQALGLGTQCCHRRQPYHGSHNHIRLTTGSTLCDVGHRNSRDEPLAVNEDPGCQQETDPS

rat NMUR2 [9] = biological target: T1, rat NMUR2; assay: cell-based or functional assay; remark: listed apart in the source
rat NMUR1-ATG [10] = biological target: T3, rat NMUR1-ATG; assay: cell-based or functional assay; remark: listed apart in the source
rat NMUR1-TTG [11] = biological target: T7, rat NMUR1-TTG; assay: cell-based or functional assay; remark: listed apart in the source
human NMUR1 [12] = biological target: T2, human NMUR1; assay: cell-based or functional assay; remark: listed apart in the source
human NMUR2 [13] = biological target: T4, human NMUR2; assay: cell-based or functional assay; remark: listed apart in the source
rat NMUR2 [14] = biological target: T1, rat NMUR2; assay: 125I-hNMU-25 displacement, cell membranes
human NMUR1 [15] = biological target: T2, human NMUR1; assay: 125I-hNMU-25 displacement, cell membranes
rat NMUR1-ATG [16] = biological target: T3, rat NMUR1-ATG; assay: 125I-hNMU-25 displacement, cell membranes
human NMUR2 [17] = biological target: T4, human NMUR2; assay: 125I-hNMU-25 displacement, cell membranes
mouse NMUR1-CTG [18] = biological target: T5, mouse NMUR1-CTG; assay: 125I-hNMU-25 displacement, cell membranes
mouse NMUR2 [19] = biological target: T6, mouse NMUR2; assay: 125I-hNMU-25 displacement, cell membranes
rat NMUR1-TTG [20] = biological target: T7, rat NMUR1-TTG; assay: 125I-hNMU-25 displacement, cell membranes
mouse NMUR1-ATG [21] = biological target: T8, mouse NMUR1-ATG; assay: 125I-hNMU-25 displacement, cell membranes
mouse NMUR1-CTG [22] = biological target: T5, mouse NMUR1-CTG; assay: cell-based or functional assay; remark: listed apart in the source
mouse NMUR2 [23] = biological target: T6, mouse NMUR2; assay: cell-based or functional assay; remark: listed apart in the source
mouse NMUR1-ATG [24] = biological target: T8, mouse NMUR1-ATG; assay: cell-based or functional assay; remark: listed apart in the source
human NMUR1 [25] = biological target: T2, human NMUR1; assay: 125I-hNMU-25 displacement, HEK cell membranes
Procedure: (§1) Confluent cell monolayers expressing NMU receptors (the HEK cells described above) were harvested with phosphate buffered saline, collected by centrifugation, and resuspended in membrane buffer (50 mM TrisCl pH 7.4, 5 mM MgCl₂, 1× Protease Inhibitor Cocktail, 10 μM phosphoramidon). After the cell pellet was homogenized, the solution was centrifuged at 18,000 rpm for 20 minutes at 4° C. The pellet was resuspended in membrane buffer to yield a final concentration of 0.5-5 μg/μL of membrane and stored at −80° C.
(§2) Experiments were performed in assay buffer (25 mM TrisCl, pH 7.4, 10 mM MgCl₂, 2mM EDTA, 1× Protease Inhibitor Cocktail, 100 μg/mL Bacitricin, 10 μM phosphoramidon) in 200 μL volumes in a 96-well format using 2-5 μg of membrane and […] ¹²⁵I-hNMU-25 (about 12,000 cpm/well). For non-specific binding, 1 μM hNMU-25 was added. About 5 μL of peptides were added to measure antagonist activity, and the entire reaction was incubated at room temperature with shaking for 80 minutes. The reaction was terminated by rapid filtration through 0.3% poly-ethylenimine presoaked Millipore 96-well filter plates and washed with ice-cold buffer (5 mM TrisCl pH 7.4, 10 mM MgCl₂, 2.5 mM EDTA, 0.04% Triton X-100). Plates were air-dried overnight at room temperature and recovered radioactivity was determined by standard scintillation counting. IC₅₀ values were determined using GraphPad Prism software.
(§3) Concentration-response curves and radioligand-binding data were fitted using Prism (GraphPad Software). Results are summarized below in Tables 8 and 9.

human NMUR2 [26] = biological target: T4, human NMUR2; assay: 125I-hNMU-25 displacement, HEK cell membranes
Procedure: as §1, §2, §3

human NMUR1 [27] = biological target: T2, human NMUR1; assay: cell-based or functional assay; remark: listed apart in the source
human NMUR2 [28] = biological target: T4, human NMUR2; assay: cell-based or functional assay; remark: listed apart in the source

T1 sequence (Q9ESQ4 whole entry): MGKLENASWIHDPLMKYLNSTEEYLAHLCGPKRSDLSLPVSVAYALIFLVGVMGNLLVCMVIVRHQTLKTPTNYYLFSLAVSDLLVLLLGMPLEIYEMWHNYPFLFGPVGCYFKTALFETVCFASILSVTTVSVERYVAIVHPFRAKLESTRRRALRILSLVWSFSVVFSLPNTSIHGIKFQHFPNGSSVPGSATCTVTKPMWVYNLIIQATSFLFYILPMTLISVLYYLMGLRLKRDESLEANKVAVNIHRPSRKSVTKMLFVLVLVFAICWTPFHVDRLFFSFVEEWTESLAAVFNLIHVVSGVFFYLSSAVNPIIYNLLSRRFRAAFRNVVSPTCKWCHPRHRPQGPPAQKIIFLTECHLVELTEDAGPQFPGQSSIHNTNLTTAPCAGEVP

B1: NMU13 (peptide)
peptide: Ac-C(Succinimide(1-Et,3-yl))FRVDEEFQSPFASQSRGYF[dA]WRPRN-NH2
SMILES: CCN1C(=O)CC(SC[C@H](NC(C)=O)C(=O)N[C@@H](Cc2ccccc2)C(=O)N[C@@H](CCCNC(=N)N)C(=O)N[C@H](C(=O)N[C@@H](CC(=O)O)C(=O)N[C@@H](CCC(=O)O)C(=O)N[C@@H](CCC(=O)O)C(=O)N[C@@H](Cc2ccccc2)C(=O)N[C@@H](CCC(N)=O)C(=O)N[C@@H](CO)C(=O)N2CCC[C@H]2C(=O)N[C@@H](Cc2ccccc2)C(=O)N[C@@H](C)C(=O)N[C@@H](CO)C(=O)N[C@@H](CCC(N)=O)C(=O)N[C@@H](CO)C(=O)N[C@@H](CCCNC(=N)N)C(=O)NCC(=O)N[C@@H](Cc2ccc(O)cc2)C(=O)N[C@@H](Cc2ccccc2)C(=O)N[C@H](C)C(=O)N[C@@H](Cc2c[nH]c3ccccc23)C(=O)N[C@@H](CCCNC(=N)N)C(=O)N2CCC[C@H]2C(=O)N[C@@H](CCCNC(=N)N)C(=O)N[C@@H](CC(N)=O)C(N)=O)C(C)C)C1=O
notes: also called NMUR1 selective peptide NMU13
Rat NMUR2 [1]
  % activity: 24%
  IC50 (nM), functional: > 1000 nM
Human NMUR1 [2]
  % activity: 91%
  IC50 (nM), functional: 1.7 nM
Rat NMUR1-ATG [3]
  % activity: 92%
  IC50 (nM), functional: 15.8 nM
Human NMUR2 [4]
  % activity: 0%
  IC50 (nM), functional: > 1000 nM
Mouse NMUR1-CTG [5]
  % activity: 88%
  IC50 (nM), functional: 14 nM
Mouse NMUR2 [6]
  % activity: 27%
  IC50 (nM), functional: > 1000 nM
Rat NMUR1-TTG [7]
  % activity: 94%
  IC50 (nM), functional: 107 nM
Mouse NMUR1-ATG [8]
  % activity: 96%
  IC50 (nM), functional: 7.8 nM
Rat NMUR2 [9]
  % Activity (FLIPR): 0%
  EC50 (FLIPR): > 1000 nM
Rat NMUR1-ATG [10]
  % Activity (FLIPR): 100%
  EC50 (FLIPR): 9.5 nM
Rat NMUR1-TTG [11]
  % Activity (FLIPR): 94.6%
  EC50 (FLIPR): 115 nM
Human NMUR1 [12]
  % Activity (FLIPR): 100%
  EC50 (FLIPR): 4.8 nM
Human NMUR2 [13]
  % Activity (FLIPR): 0%
  EC50 (FLIPR): > 1000 nM
Rat NMUR2 [14]
  % inhibition of NMU-25 binding: 0%
Human NMUR1 [15]
  % inhibition of NMU-25 binding: 100%
  IC50: 4.3 nM
Rat NMUR1-ATG [16]
  % inhibition of NMU-25 binding: 100%
  IC50: 1.6 nM
Human NMUR2 [17]
  % inhibition of NMU-25 binding: 48%
Mouse NMUR1-CTG [18]
  % inhibition of NMU-25 binding: 100%
  IC50: 3.5 nM
Mouse NMUR2 [19]
  % inhibition of NMU-25 binding: 30%
Rat NMUR1-TTG [20]
  % inhibition of NMU-25 binding: 100%
  IC50: 3.24 nM
Mouse NMUR1-ATG [21]
  % inhibition of NMU-25 binding: 100%
  IC50: 5.4 nM
Mouse NMUR1-CTG [22]
  % Activity (FLIPR): 73.6%
  EC50 (FLIPR): 142 nM
Mouse NMUR2 [23]
  % Activity (FLIPR): 0%
  EC50 (FLIPR): > 1000 nM
Mouse NMUR1-ATG [24]
  % Activity (FLIPR): 98.6%
  EC50 (FLIPR): 35.8 nM

## Ac-C(Succinimide(1-Et,3-yl))FRVDEEFQSPFASQSRGYFLFRPRN-NH2 [NMU8]
Rat NMUR2 [9]
  % Activity (FLIPR): 94.7%
  EC50 (FLIPR): 45.1 nM
Rat NMUR1-ATG [10]
  % Activity (FLIPR): 97.2%
  EC50 (FLIPR): 36.7 nM
Human NMUR1 [25]
  % activity (binding): 100%
  IC50: 2.4 nM
Human NMUR2 [26]
  % activity (binding): 100%
  IC50: 0.3 nM
Human NMUR1 [12]
  % Activity (FLIPR): 99.1%
  EC50 (FLIPR): 10.7 nM
Human NMUR2 [13]
  % Activity (FLIPR): 100%
  EC50 (FLIPR): 5.2 nM
Human NMUR1 [27]
  % activity: 100%
  EC50: 1.36 nM
Human NMUR2 [28]
  % activity: 104%
  EC50: 2.9 nM
Mouse NMUR1-CTG [22]
  % Activity (FLIPR): 100%
  EC50 (FLIPR): 15.5 nM
Mouse NMUR2 [23]
  % Activity (FLIPR): 100%
  EC50 (FLIPR): 1.8 nM
Mouse NMUR1-ATG [24]
  % Activity (FLIPR): 100%
  EC50 (FLIPR): 6.4 nM

— patent US20070244048A1 (published 2007)
